Measured values from article PMC12184499, “Pathogenic variants in the polycystin pore helix cause distinct forms of channel dysfunction” (Proceedings of the National Academy of Sciences of the …, 2025).

Experiments:
[1] = target: the molecule itself; assay: SEC; Superdex 200 10/300 GL; PKD2 52-793 extracted with DDM and reconstituted in amphipol A8-35; Buffer B (25 mM pH 7.4, 150 mM NaCl, 1 mM TCEP, 1 mM CaCl2); oligomer and protomer peaks
[2] = target: the molecule itself; assay: cryo-EM structure; single-particle cryo-EM of variant channels in amphipol A8-35 (0.5 to 1.0 mg/mL), refined with C4 symmetry

Row | Protein | binding result [1] | stoichiometry N [2]
1 | PKD2 WT channel (hPKD2: 52-793) (domain or fragment, human, UniProt Q13563 52-793, looked up, PKD2 (polycystin-2), human, residues 52-793 (hPKD2: 52-793); Construct is Strep-MBP-TEV-PKD2; the Strep tag lies before MBP and the TEV site, so it probably left with MBP on TEV cleavage; The cryo-EM methods give 53-792 for the variants; also called polycystin; source: Expi293F GnTI-/- cells, transient transfection, purified (Strep-Tactin, amphipol A8-35, SEC); not shown: MBP, N-terminal, cleaved) LEIEMQRIRQAAARDPPAGAAASPSPPLSSCSRQAWSRDNPGFEAEEEEEEVEGEEGGMVVEMDVEWRPGSRRSAASSAVSSVGARSRGLGGYHGAGHPSGRRRRREDQGPPCPSPVGGGDPLHRHLPLEGQPPRVAWAERLVRGLRGLWGTRLMEESSTNREKYLKSVLRELVTYLLFLIVLCILTYGMMSSNVYYYTRMMSQLFLDTPVSKTEKTNFKTLSSMEDFWKFTEGSLLDGLYWKMQPSNQTEADNRSFIFYENLLLGVPRIRQLRVRNGSCSIPQDLRDEIKECYDVYSVSSEDRAPFGPRNGTAWIYTSEKDLNGSSHWGIIATYSGAGYYLDLSRTREETAAQVASLKKNVWLDRGTRATFIDFSVYNANINLFCVVRLLVEFPATGGVIPSWQFQPLKLIRYVTTFDFFLAACEIIFCFFIFYYVVEEILEIRIHKLHYFRSFWNCLDVVIVVLSVVAIGINIYRTSNVEVLLQFLEDQNTFPNFEHLAYWQIQFNNIAAVTVFFVWIKLFKFINFNRTMSQLSTTMSRCAKDLFGFAIMFFIIFLAYAQLAYLVFGTQVDDFSTFQECIFTQFRIILGDINFAEIEEANRVLGPIYFTTFVFFMFFILLNMFLAIINDTYSEVKSDLAQQKAEMELSDLIRKGYHKALVKLKLKKNTVDDISESLRQGGGKLNFDELRQDLKGKGHTDAEIEAIFTKYDQDGDQELTEHEHQQMRDDLEKEREDLDLDH | binds | 
2 | PKD2 F629S variant channel (hPKD2: 52-793) (domain or fragment, human, UniProt Q13563 52-793, looked up, PKD2 (polycystin-2), human, residues 52-793, ADPKD germline missense variant F629S in pore helix 1; Construct is Strep-MBP-TEV-PKD2; the Strep tag probably left with MBP on TEV cleavage; The cryo-EM methods give 53-792; the model holds E214-Q694 without M295-A303; source: Expi293F GnTI-/- cells, transient transfection, purified (Strep-Tactin, amphipol A8-35, SEC); not shown: MBP, N-terminal, …) LEIEMQRIRQAAARDPPAGAAASPSPPLSSCSRQAWSRDNPGFEAEEEEEEVEGEEGGMVVEMDVEWRPGSRRSAASSAVSSVGARSRGLGGYHGAGHPSGRRRRREDQGPPCPSPVGGGDPLHRHLPLEGQPPRVAWAERLVRGLRGLWGTRLMEESSTNREKYLKSVLRELVTYLLFLIVLCILTYGMMSSNVYYYTRMMSQLFLDTPVSKTEKTNFKTLSSMEDFWKFTEGSLLDGLYWKMQPSNQTEADNRSFIFYENLLLGVPRIRQLRVRNGSCSIPQDLRDEIKECYDVYSVSSEDRAPFGPRNGTAWIYTSEKDLNGSSHWGIIATYSGAGYYLDLSRTREETAAQVASLKKNVWLDRGTRATFIDFSVYNANINLFCVVRLLVEFPATGGVIPSWQFQPLKLIRYVTTFDFFLAACEIIFCFFIFYYVVEEILEIRIHKLHYFRSFWNCLDVVIVVLSVVAIGINIYRTSNVEVLLQFLEDQNTFPNFEHLAYWQIQFNNIAAVTVFFVWIKLFKFINFNRTMSQLSTTMSRCAKDLFGFAIMFFIIFLAYAQLAYLVFGTQVDDFSTSQECIFTQFRIILGDINFAEIEEANRVLGPIYFTTFVFFMFFILLNMFLAIINDTYSEVKSDLAQQKAEMELSDLIRKGYHKALVKLKLKKNTVDDISESLRQGGGKLNFDELRQDLKGKGHTDAEIEAIFTKYDQDGDQELTEHEHQQMRDDLEKEREDLDLDH |  | 4
3 | PKD2 R638C variant channel (hPKD2: 52-793) (domain or fragment, human, UniProt Q13563 52-793, looked up, PKD2 (polycystin-2), human, residues 52-793, ADPKD germline missense variant R638C in pore helix 1; Construct is Strep-MBP-TEV-PKD2; the Strep tag probably left with MBP on TEV cleavage; The cryo-EM methods give 53-792; the model holds E214-Q694 without M295-A303; source: Expi293F GnTI-/- cells, transient transfection, purified (Strep-Tactin, amphipol A8-35, SEC); not shown: MBP, N-terminal, …) LEIEMQRIRQAAARDPPAGAAASPSPPLSSCSRQAWSRDNPGFEAEEEEEEVEGEEGGMVVEMDVEWRPGSRRSAASSAVSSVGARSRGLGGYHGAGHPSGRRRRREDQGPPCPSPVGGGDPLHRHLPLEGQPPRVAWAERLVRGLRGLWGTRLMEESSTNREKYLKSVLRELVTYLLFLIVLCILTYGMMSSNVYYYTRMMSQLFLDTPVSKTEKTNFKTLSSMEDFWKFTEGSLLDGLYWKMQPSNQTEADNRSFIFYENLLLGVPRIRQLRVRNGSCSIPQDLRDEIKECYDVYSVSSEDRAPFGPRNGTAWIYTSEKDLNGSSHWGIIATYSGAGYYLDLSRTREETAAQVASLKKNVWLDRGTRATFIDFSVYNANINLFCVVRLLVEFPATGGVIPSWQFQPLKLIRYVTTFDFFLAACEIIFCFFIFYYVVEEILEIRIHKLHYFRSFWNCLDVVIVVLSVVAIGINIYRTSNVEVLLQFLEDQNTFPNFEHLAYWQIQFNNIAAVTVFFVWIKLFKFINFNRTMSQLSTTMSRCAKDLFGFAIMFFIIFLAYAQLAYLVFGTQVDDFSTFQECIFTQFCIILGDINFAEIEEANRVLGPIYFTTFVFFMFFILLNMFLAIINDTYSEVKSDLAQQKAEMELSDLIRKGYHKALVKLKLKKNTVDDISESLRQGGGKLNFDELRQDLKGKGHTDAEIEAIFTKYDQDGDQELTEHEHQQMRDDLEKEREDLDLDH |  | 4
